In patent US20070065890A1, “Method for promoting formation of facultative heterochromatin” (priority 2005, published 2007) one finds derepression of the Gal4 pTK-Luc reporter (compare G4-SirT1 with G4-ΔN-SirT1) data, which are given here for 1 substance.

For this assay, the target named is endogenous histone H1. In words: cell-based or functional assay.

In turn, “deletion mutant G4-ΔNSirT1 (Δ(1-268)) (from UniProt P04386 1-147)” had a derepression of the Gal4 pTK-Luc reporter (compare G4-SirT1 with G4-ΔN-SirT1) of 20%.
